From the DeepSol protein solubility set

Experiment: soluble on expression in E. coli; label from the status in PepcDB or PDB records

| Sequence | soluble on expression in E. coli |
| --- | --- |
| MQRTLGEIMKIYFATGNPNKIKEANIILKDLKDVEIEQIKISYPEIQGTLEEVAEFGAKWVYNILKKPVIVEDSGFFVEALNGFPGTYSKFVQETIGNEGILKLLEGKDNRNAYFKTVIGYCDENGVRLFKGIVKGRVSEEIRSKGYGFAYDSIFIPEEEERTFAEMTTEEKSQISHRKKAFEEFKKFLLDRI | soluble |
| MQSIEHFEPQFLSFIQKEMVQDLAHDINHVLRVVSMAKRLCVEEKGKEAVVIPAAYLHDCFSFAKDHSNRSQSSAFAADKALVFLKEIGYPSEYYDEIHHAIVAHSFSAKVETRTLEAKIVQDADRLDALGAIGIARCLQVSTKLNSPLYSIDDPFCYHREPNDKAYTIDHFYAKLLTLANTMKTTSAVAEAEKRTQYMRDYLTQLESELLEHHHHHH | soluble |
| MQSIPIKNVGESRLVDPFQRQYYYLRLSITDQCNFRCTYCLPDGYQPEANKPSFLTLKEITHLAQAFAEMGTEKIRLTGGEPTLRKDFISIAESITNIDGIRQLAVTTNGYRMAKDVADWKKAGITSINVSVDSLDPKMFHQITGINKFDDVMRGIDRAFEVGYNKVKVNSVLMKNLNDKEFEQFLAWVKDRPIQMRFIELMQTGEMDSFFDKFHLSGQVLADKLLKNGWTLQHKSHTDGPAKVFTHPDYAGEIGLIMPYEKNFCASCNRLRVSAKGKLHLCLFGEEGIELRDLLQSHEQQGILQARIFAALQGKREHHYLHIGDTGVRNHLASIGGMGHHHHHHSH | not soluble |
| MQSVTPTSQYLKALNEGSHQPDDVQKEAVSRLEIIYQELINSRPPAPRTSGLMARVGKLWGKREDTKHTPVRGLYMWGGVGRGKTWLMDLFYQSLPGERKQRLHFHRFMLRVHEELTALQGQTDPLEIIADRFKAETDVLCFDEFFVSDITDAMLLGGLMKALFTRGITLVATSNIPPDELYRNGLQRARFLPAIDAIKQHCDVMNVDAGVDYRLRTLTQAHLWLSPLNDETRAQMDKLWLALAGVKRENSPTLEINHRPLATMGVENQTLAVSFTTLCVDARSQHDYIALSRLFHTVMLFDVPVMTRLMESEARRFIALVDEFYERHVKLVVSAEVPLYEIYQGERLKFEFQRCLSRLQEMQSEEYLKREHLAGLEHHHHHH | soluble |
| MQTKLSTWTPLNHQLSNAHVFEERRNLLGKWFEKWTDSQRKQVLQDFFSRCSAGQLKHLRQTLSSWVPEETLDFTTVLPRVISLYIFSYLDPRSLCRCAQVSWHWKNLAELDQLWMPKCLKLGWCITFTPTPFEQGVWKRQYIETVQELHISRPKVPVKEEFIVPDVKVIGSETEGSLPLTGHRDLLGLQGRSKNGNDLGKSAKGLPPWRDSDRHPTDTIRFNYLDNLHPGEHARKALLKTRQEDTIKAPSHSTYKLRKAKSLMFLSLDLSTAGKPSHNRPKWAARNLEALPADKDSIKRISQTSQWNAGIRPGPVRPPVPRLSKEGFRASQRSHRSPPTVTLFEGQP | soluble |
| MQTLERFFLFVTGDQPERFEKANSSCADSVILDLENAVSSEKKIIARENALNFMSNDEKVLIAVRAKIVITSRLAGSYPSVDGITTEFMKNELTIQNAIHSCKMGFSGKVCIHPPQISHVNRAFSYLKQEIEWVPQIMRLAQYPHGAFSHEGQMVDKPLLEKAKRILAHSILEHHHHHH | not soluble |
| MQTSLRAPTLEKVSSRPRGSRRRSRKTFTAKLTSPTFRRWSSTEKWTVASREIGSARKRFCSTRTPGAAIHSSNRSRSALRYDHIDHRALARKSPHLMPPTFIKEEIMDDELDEVKEEVVSVGEAALPTPKVELNMDHPEKDLIISISVYLGYTRTLQYHEIRLGRLMKITDRLELTGDHTLRDLKNAFSCPIDFSFSDDFSEKKPSFKDMAKNKWPSTMFFIHDTDESHVNVEFPRRLVERNFRRIACDTCKEASAHWMIVDHDNLLPNSPGYLCSSCYKEFCFDVNGNKVCQFKAVPYCDRKDIGDGRQFFTELDL | not soluble |
| MQVEVGQIVNTHGIKGEVKVKSNSDFTDTRFQPGEVLTVNHQNHEEQLTVLSYRVHKGFHMLKFEGINNINDVEQYKGDYLYQERDHEDIELAENEYYYSDIIGSTVFDNDNQPIGRVINIFETGANDVWVVKGEKEYLIPYIADVVKEIDIENKTIRITPMEGLLDLEHHHHHH | soluble |
| MQVFCFTPKGEVVKLPRGATPIDFAFAIHTRIGMACVGAKVDHMRVPLWTRLKNGQSVEVITAEGQSPQATWLEHHHHHH | not soluble |
| MQVIPLKPLDNKTLEEIGLDWHTNDDMSSYIADEMVVVSQKEADAYYDACNELYDMFVETAEEAIQNDRFFELDIPNALIPMIKQSFEEEVHWHIYGRFDLAGGLDGKPIKLLEFNADTPTMLYETAVIQWALLKANGYDENKQFNNLYEALGENFKRMVTLGEDTSRFEEMYEGWKILFSSVRGNIEEERTMRFLQDAAQSVGFETDFSYIDEVEFNIEEGVFKNGLNYEFLFKLIPWENIAIDEPELALLMQGMMENKNTIFLNPAYTILFQSKRFLKLLWDRYPNHPLLLETSYEPLANKKQIKKVAFGREGANSEIFEASMQSLLKTDGVYSNHKPVYQEFYELNSHNGLYYQPNVFFAYESCALGFRKGGLILDNFSKFVSHRLQ | not soluble |
| MQVSLNPEWLARNNDEHKIRRNDHRSPFQRDRARILHSAAFRRLQAKTQVHGTSLNDFHRTRLTHSLEAAQIGTGIVAQIKLKQPEFRELLPSDSLIDSLCLAHDIGHPPYGHGGEIALNYMMRDHGGFEGNAQTFRIVTSLEPYTEHHGMNLSRRTLLGLLKYPALLSATRAAIPPPAVAHQRQLKAKDWSPAKGIYDCDLASLDWVLEPLCESDRELLGQMRAEPSSPKEHRKTRFKSLDCSIMELADDIAYGVHDLEDAIVLGMVTRAQWQEAAAAQLAECGDPWFEEHIAELSEMLFSGKHYVRKDAIGGIVNALLTSISVKPVEAPFHNELLAFNAYIEPHMGNALEVLKHFVSQYVIQIPQVQRFEYKGQQLIMDLFEALSADPERLLPQATGEKWRKAQEQDEGMRVICDYIAAMTDAYAQRLHQQLFSAQSHY | not soluble |
| MRALAKLAPEEGLTLVDRPVPEPGPGEILVRVEAASICGTDLHIWKWDAWARGRIRPPLVTGHEFSGVVEAVGPGVRRPQVGDHVSLESHIVCHACPACRTGNYHVCLNTQILGVDRDGGFAEYVVVPAENAWVNPKDLPFEVAAILEPFGNAVHTVYAGSGVSGKSVLITGAGPIGLMAAMVVRASGAGPILVSDPNPYRLAFARPYADRLVNPLEEDLLEVVRRVTGSGVEVLLEFSGNEAAIHQGLMALIPGGEARILGIPSDPIRFDLAGELVMRGITAFGIAGRRLWQTWMQGTALVYSGRVDLSPLLTHRLPLSRYREAFGLLASGQAVKVILDPKA | soluble |
| MRCKRHTVDFSSSIGVCASCLRERLFTLAVSTAASENDDNDHRHSRISPPPLLFPRSVSPYVAPRKSDAGTGTGAGGRDSVASSNNRFFATPQVVVQSSSSEKVFESDRSFKKKKSGLSRFSSFFRTRSDDYDSRRDSCDASTVFSQPSSATTSRSWFSKVISVRSKKQSTTNTCYIEDLIASESDHHHHNQNRPRQRYCRGMSPAGDSTTNDESVEESPGRLRRTPVMGTPGRKKTATIGIGRSVSGMAFCLSPLVRAKPNCSSNWKAKFPPDFGYSGELKSPAKPHLSTAASFCGNRSKKLVDLGRVDHRR | soluble |
| MRCQPFCRNLAGFPQNSPAQSTTMTYTHGSALPSTDDVTIDADVATEELTGTAAFDAGVGDMPSWEELVAQHADSVYRLAFRLSGNQHDAEDLTQETFMRVFRSLKGYQPGTFEGWLHRITTNLFLDMVRHRAKIRMEALPEDYERVPGTDMTPEQAYNVSNLDPALQKALDDLSPDFRVAVVLCDVVGMSYDEIADTLGVKMGTVRSRIHRGRSQLRAHLENQATSDEGAQLLLATGR | not soluble |
| MRDVTKGSFNDSPNNGFFEIQYKEDGVYLTVHPPIGKGKAVEVNDVISRLTQKKIVYDKEMVELAVQRASNVPVKIGEPQEELKLDATIDVNISPDKMKATMVIRPPDGGRMLTKDEMMEILKNSGVRYGINESMLENVSKYPVYNEIIVIAEGTPPINGQNGKVEFHFDLKKERKPTILEDGRVDFRELNLIESVKKGQVLCTLVPPLPGTPGRTVEDIEVPALDGKPAVLPKGKNVEISEDGQSLIAGIDGQVNYIDGKVSVFANYEVPADVDNSTGNISFVGNVIIRGNVLSGFTVEAGGSVEVMGVVEAAVIKADGDIILRRGMQGLGRGILKSGGDIIAKYIENSIIEAKGDIKAEAIMHSNVKCGNKLELSGKKGLLIGGKCKVGKEIVAKVIGSYLATHTDIEVGVDPQIKERYKELRDEIRKIEEDLVKAEQAITILKKLEAAGKLTPEKQELMARSIRTKIYYSNRLGELKEELIITEQRLQKEADGKIRVFDHIYPGTKVTIGTSMMYVKEDLQYCTLYRDGADIRVGPIDK | soluble |
| MREEDRRGGVKLSLTRLFLHERTVEIILRILKAEENGEKIYPLQISTDIGSPYSYVSKVLGELEKCSLVESRPEGRMRVVSLTPYGKVVASMLRDLYTELEKDFNSRMKLDILKDVYSNANGDVRVYLPVMAELEMLAKSTNDGFVVEEAKKLISEVKRKIEGAK | soluble |
| MREGWRDEPAARGGCQCGRVRYSVPAGPKKSTVCHCRMCQRATGNAFAPLLEVPTADVVWEGTPAVWASSSVAERGFCATCGTPLFYRSDETTELMAGTLAGFDFRPIANHGIEGRVGWLGGLAALPDRATRPELLSRVVSHQAPDE | not soluble |
| MREWKIIDSTLREGEQFEKANFSTQDKVEIAKALDEFGIEYIEVTTPVASPQSRKDAEVLASLGLKAKVVTHIQCRLDAAKVAVETGVQGIDLLFGTSKYLRAPHGRDIPRIIEEAKEVIAYIREAAPHVEVRFSAEDTFRSEEQDLLAVYEAVAPYVDRVGLADTVGVATPRQVYALVREVRRVVGPRVDIEFHGHNDTGCAIANAYEAIEAGATHVDTTILGIGERNGITPLGGFLARMYTLQPEYVRRKYKLEMLPELDRMVARMVGVEIPFNNYITGETAFSHKAGMHLKAIYINPEAYEPYPPEVFGVKRKLIIASRLTGRHAIKARAEELGLHYGEEELHRVTQHIKALADRGQLTLEELDRILREWITAHHHHHH | soluble |
| MRFGPVALSAAKGALLAHSRKAPGWTLAKGTRLGDEDLALLAGLGVAEVVVARLDPGDVHEDEAAARVAAVLLGPGLTLGDAFTGRANLFAGGDGLLRLDAARFDRLNALCEGLTVATLPPFAKVAPRQMVATVKIIPFALPETVIAQAEALLAGAPALEVALFRPMRLALIQTHLPETAGKMLDKTASVTAGRMAALGGGLTVDRRCPHDTRALAACLSAVSAEKDVDLIAVAGASAIVDRGDVIPAAITRAGGRVDHLGMPVDPGNLILLGELAGRVVLGLPGCARSPAINGFDWVLDRLCAGLAVGGADLMAMGVGGLLKDTTARTQPRMAAVTHPSPAAPPRLGALVLAAGLSRRMGGVNKLLLDWRGKPLVAHAVDTVLAAGPAAVAVVIGHQGKAVRAALEGRAIALVENPDPGRGLGSSLKRGLAALPADLDGVIVCLGDMPGLTPRLLSRLIAAFAPLEGRAICLPTFGGRRGNPVLFAARFLPEMMEITGDIGARPVIAAHPDQTCEVAMDALAEGASVLMDVDTPEAAKALLSAGGLEHHHHHH | not soluble |
| MRFIPLIVARPEVQMAIDEAILIARSEGRVPDTVRLYVFKPSSVTIGRFQSVRYDVNLEKAKELGIPVVRRITGGGSVFHDEYGEITYSVVISEDYHPMLKNIQDSYRFLAGPLVDALKDLGIEAEFSGLNDIVVRGKKISGSAQTRRRGIILQHGTLMYATRLEILGSVLKVSKEKLKDKGVKSIFERVTTLEREGIKVGRNEMYEVLRNSFFRAFPLDEGELTEYELELVEKLIEERYGNDKWNFQKLEHHHHHH | soluble |
| MRFITETELRDLYKAEPFTAYTLEPRTKLTPEARQFLVDRGIKLAEAQDCKSKSTGNGKSGTEQESWNVLRLRRRMESLESLFLMVGANLLSGGSTVLAEEVFALGRCFSEVKKTAWEQTSPVNLQFQDWSEAEMKNCSTYLGKHFDITEFHVRTENGAAIASLNHLRATLRELESAVLEAYWDEEFNVCSRQDLIEKINLIMNILCVMIWKCLGGQQCKT | not soluble |
